Source: patent US20030166850A1 (Pfizer, published 2003)
Each block holds one binder with its values, some of them ahead of it.

Legend:
[1] = target: T1, proline rich domain of RGS9-2, amino acids 460-672 of human RGS9 (bait, plasmid pAS1-RGS9CT) (human, UniProt O75916 463-674); assay: yeast two-hybrid screen of a human fetal brain library
T1 sequence: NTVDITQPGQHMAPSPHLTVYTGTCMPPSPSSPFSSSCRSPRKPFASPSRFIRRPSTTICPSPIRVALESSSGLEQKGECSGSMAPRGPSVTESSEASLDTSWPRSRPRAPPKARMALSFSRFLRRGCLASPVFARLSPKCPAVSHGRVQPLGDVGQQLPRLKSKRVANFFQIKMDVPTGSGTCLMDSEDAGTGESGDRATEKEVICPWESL
Source text: (§1) To identify interactors of the proline rich domain of RGS9, amino acids 460-672 of human RGS9 (FIG. 1A), was used as “bait” to screen a pretransformed human fetal brain library (Clontech). The RGS9-2 cDNA used was cloned by PCR from a human brain cDNA library using the primers 5′ primer: […], 3′ primer: […]. The DNA encoding amino acids 460-672 of RGS9-2, was amplified by PCR using the primer sequences 5′ […] and 3′ […] and ligated into the NdeI and BamH 1 sites of pAS1 (Clontech). The pAS1-RGS9CT plasmid was used to transform the yeast strain PJ69-2A (Clontech) using lithium acetate. The library was screened using a yeast mating protocol by incubating the library (MATα) with the bait strain ([…]) overnight at 30° C. according to the manufacturer's protocols. The mating mixture was plated on SD/-His/-Leu/-Trp and incubated at 30° C. until colonies appeared. Colonies were picked and miniprep DNA prepared. The insert in the library plasmid was amplified using the LD-Insert Screening amplimer set of primers (Clontech) and the amplicon sequenced on an ABI 3700 capillary sequencer. The sequences obtained were used as queries against the GENBANK database using BLAST. The 6 most common hits were selected for further study and were replated on SD/-His/-Leu/-Trp containing 0-40 mM […]. […]

[2] = target: T1, proline rich domain of RGS9-2, amino …; assay: yeast two-hybrid assay
Source text: as §1

binding result [1]: binds
B1: evectin clone discovered in the yeast two-hybrid screen (amino acids 101-190) (other)
chain: KTALLEANSTPVRVYSPYQDYYEVVPPNAHEATYVRSYYGPPYAGPGVTHVIVREDPCYSAGAPLAMGMLAGAATGAALGSLMWSPCWF
notes: Prey clone from the pretransformed human fetal brain library (Clontech); also called latter half of the evectin protein

binding result [2]: binds
B2: EVT ΔC54 (C terminal deletion mutant of evectin) (other)
chain: MALVRGGWLWRQSSILRRWKRNWFALWLDGTLGYYHDETAQDEEDRVLIHFNVRDIKIGPECHDVQPPEGRSRDGLLTVNLREGGRLHLCAETKDDALAWKTALLEANSTPVRVYSPYQDYYEVVPPNAHEATYVR
